Measured values: paper PMC4140749, “Identification of a Novel Hypocholesterolemic Protein, Major Royal Jelly Protein 1, Derived from Royal Jelly” (PLoS ONE, 2014)

Biological target: the molecule itself
Experiment: SEC; 10-kDa cut-off royal jelly applied to HiLoad 26/60 Superdex 200 p.g.; 150 mM NaCl, 20 mM phosphate buffer pH 7.5; molecular weight calibrated with standard proteins; peak resolved by 15% SDS-PAGE

B1: major royal jelly protein 1 (natural protein, Apis mellifera, UniProt O18330 20-432, looked up)
chain: NILRGESLNKSLPILHEWKFFDYDFGSDERRQDAILSGEYDYKNNYPSDIDQWHDKIFVTMLRYNGVPSSLNVISKKVGDGGPLLQPYPDWSFAKYDDCSGIVSASKLAIDKCDRLWVLDSGLVNNTQPMCSPKLLTFDLTTSQLLKQVEIPHDVAVNATTGKGRLSSLAVQSLDCNTNSDTMVYIADEKGEGLIVYHNSDDSFHRLTSNTFDYDPKFTKMTIDGESYTAQDGISGMALSPMTNNLYYSPVASTSLYYVNTEQFRTSDYQQNDIHYEGVQNILDTQSSAKVVSKSGVLFFGLVGDSALGCWNEHRTLERHNIRTVAQSDETLQMIASMKIKEALPHVPIFDRYINREYILVLSNKMQKMVNNDFNFDDVNFRIMNANVNELILNTRCENPDNDRTPFKISIHL
notes: Major royal jelly protein 1 (MRJP1), Apis mellifera; 55 kDa on SDS-PAGE; Native protein isolated from royal jelly and identified by MALDI-TOF/MS; The introduction calls MRJPs glycoproteins; also called MRJP1; major RJ protein 1; source: purified from royal jelly (10-kDa cut-off RJ, size-exclusion chromatography on Superdex 200)
stoichiometry N: ~5
